Patent US20240368233A1 (University of Washington, published 2024)

Assays:
[1] = target: T1, 101B82, split luciferase reporter construct; assay: split luciferase equilibrium binding in lysate
T1 construct: not shown: N-terminal Strep-tag and sfGFP; GS-linker and smBiT or lgBiT
T1 chain: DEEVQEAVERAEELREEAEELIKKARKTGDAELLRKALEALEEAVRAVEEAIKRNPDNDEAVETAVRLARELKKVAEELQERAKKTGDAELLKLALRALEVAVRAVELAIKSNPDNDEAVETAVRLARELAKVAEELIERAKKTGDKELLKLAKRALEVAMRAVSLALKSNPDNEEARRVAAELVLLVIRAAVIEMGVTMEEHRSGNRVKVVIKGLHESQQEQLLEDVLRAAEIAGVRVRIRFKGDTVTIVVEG

[2] = target: T2, 101B4, split luciferase reporter construct; assay: split luciferase association kinetics, 1 nM vs. 10 nM, in lysate
T2 construct: not shown: N-terminal Strep-tag and sfGFP; GS-linker and smBiT or lgBiT
T2 chain: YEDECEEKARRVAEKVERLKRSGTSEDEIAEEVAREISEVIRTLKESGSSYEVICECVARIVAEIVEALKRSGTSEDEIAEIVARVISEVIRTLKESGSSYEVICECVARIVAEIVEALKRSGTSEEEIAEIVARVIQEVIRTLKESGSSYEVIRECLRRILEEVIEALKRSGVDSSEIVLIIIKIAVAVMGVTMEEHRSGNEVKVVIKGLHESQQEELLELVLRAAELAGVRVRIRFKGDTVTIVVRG
Experimental: (§1) Assays were performed in 20 mM sodium phosphate, 100 mM NaCl, pH 7.4, 0.05% v/v Tween 20. Reactions were assembled in 96 well plates (Corning, cat #3686) in the presence of Nano-Glo™ substrate (Promega, cat. #N1130) diluted 100× or 500× for kinetics and endpoint measurements respectively (see supplement for detailed information). Luminescence was recorded on a Synergy Neo2 plate reader (BioTek). Kinetic assays were performed under pseudo first-order conditions, with the final concentration of one protein at 1 nM and the other at 10 nM. Dead times between substrate addition and data acquisition were typically 15-30 s. For long kinetic measurements (FIG. 11A), mastermixes of the protein complexes were made and aliquots were sampled at regular intervals. Data were fitted to a single exponential decay function: […]

[3] = target: T2, 101B4, split luciferase reporter …; assay: split luciferase equilibrium binding in lysate
[4] = target: T3, LHD101 chainB, split luciferase reporter construct; assay: split luciferase equilibrium titration in E. coli lysate, constant partner at 1 nM; first-named construct read as the titrated one; no unit beside the number, M from the axis '[Titrated] / M'
T3 construct: not shown: N-terminal Strep-tag and sfGFP; GS-linker and smBiT or lgBiT
T3 chain: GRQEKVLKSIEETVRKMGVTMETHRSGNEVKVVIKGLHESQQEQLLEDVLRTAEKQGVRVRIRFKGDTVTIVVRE

[5] = target: T3, LHD101 chainB, split luciferase …; assay: split luciferase association kinetics, 1 nM vs. 10 nM, in lysate
Experimental: as §1

[6] = target: T3, LHD101 chainB, split luciferase …; assay: split luciferase; affinity of the interface as measured in isolation, used to simulate the ternary complex ABC
[7] = target: T3, LHD101 chainB, split luciferase …; assay: split luciferase equilibrium binding in lysate
LHD101 chainB [8] = target: T4, LHD101 chainB; assay: BLI, steady state fit
T4 construct: also called LHD101B
T4 chain: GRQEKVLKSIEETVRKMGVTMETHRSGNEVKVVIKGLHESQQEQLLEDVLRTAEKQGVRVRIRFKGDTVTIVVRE
Experimental: (§2) Biolayer interferometry experiments were performed on an OctetRED96 BLI system (ForteBio, Menlo Park, CA). Streptavidin coated biosensors were first equilibrated for at least 10 minutes in Octet buffer (10 mM HEPES pH 7.4, 150 mM NaCl, 3 mM EDTA, 0.05% Surfactant P20) supplemented with 1 mg/ml Bovine Serum Albumin (SigmaAldrich). Enzymatically biotinylated designs were immobilized onto the biosensors by dipping the biosensors into a solution with 10-50 nM protein for 30-120 s. This was followed by dipping in fresh octet buffer to establish a baseline for 120 s. Titration experiments were performed at 25° C. while rotating at 1,000 r.p.m. Association of designs was allowed by dipping biosensors in solutions containing designed protein diluted in octet buffer until equilibrium was approached followed by dissociation by dipping the biosensors into fresh buffer solution in order to monitor the dissociation kinetics. Steady-state and global kinetic fits were performed using the manufacturer's software (Data Analysis 9.1) assuming a 1:1 binding model.

LHD101 chainB [9] = target: T4, LHD101 chainB; assay: BLI
Excerpt: FIG. 8A-E. Characterization LHD binding in vitro. A: Designed models heterodimers (top row). Middle row, SEC binding experiments performed on a Superdex™ 75 column. Bottom row, biolayer interferometry kinetic binding traces. […] C: Kinetic binding traces from BLI. Equilibrium responses were used to fit equilibrium binding curves D: Equilibrium binding curves of LHDs from biolayer interferometry binding assays with data from C. […] Biotinylated unfused protomers were immobilized on streptavidin coated biosensors.
Biolayer interferometry experiments were performed on an OctetRED96 BLI system (ForteBio, Menlo Park, CA). Streptavidin coated biosensors were first equilibrated for at least 10 minutes in Octet buffer (10 mM HEPES pH 7.4, 150 mM NaCl, 3 mM EDTA, 0.05% Surfactant P20) supplemented with 1 mg/ml Bovine Serum Albumin (SigmaAldrich). Enzymatically biotinylated designs were immobilized onto the biosensors by dipping the biosensors into a solution with 10-50 nM protein for 30-120 s. This was followed by dipping in fresh octet buffer to establish a baseline for 120 s. Titration experiments were performed at 25° C. while rotating at 1,000 r.p.m. […]

LHD101 chainB [10] = target: T4, LHD101 chainB; assay: BLI, global kinetic fit, 1:1 model
Experimental: as §2

LHD101 chainB [11] = target: T4, LHD101 chainB; assay: BLI, dissociation rate constant (kdis)
Experimental: as §2

[12] = target: the molecule itself; assay: SEC titration (self-association)
[13] = target: T5, LHD206 chainB, split luciferase reporter construct; assay: split luciferase association kinetics, 1 nM vs. 10 nM, in lysate
T5 construct: not shown: N-terminal Strep-tag and sfGFP; GS-linker and smBiT or lgBiT
T5 chain: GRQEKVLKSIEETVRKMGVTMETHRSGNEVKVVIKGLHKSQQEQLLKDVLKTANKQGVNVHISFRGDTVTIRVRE
Experimental: as §1

[14] = target: T5, LHD206 chainB, split luciferase …; assay: split luciferase equilibrium binding in lysate
317B [15] = target: T6, 317B; assay: BLI, steady state fit
T6 construct: also called LHD317 B; LHD317B
T6 chain: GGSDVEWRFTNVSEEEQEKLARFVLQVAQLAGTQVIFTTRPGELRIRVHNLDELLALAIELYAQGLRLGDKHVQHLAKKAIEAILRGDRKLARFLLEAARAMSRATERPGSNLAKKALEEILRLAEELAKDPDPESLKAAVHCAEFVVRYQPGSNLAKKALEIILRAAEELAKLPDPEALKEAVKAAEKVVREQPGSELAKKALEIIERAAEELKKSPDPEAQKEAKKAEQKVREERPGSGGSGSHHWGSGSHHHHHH
Experimental: as §2

[16] = target: the molecule itself; assay: SEC titration of the protomer alone at several injection concentrations (Superdex 75, normalised A230); self-association
317B [17] = target: T6, 317B; assay: BLI, global kinetic fit, 1:1 model
Experimental: as §2

LHD202 chainB [18] = target: T7, LHD202 chainB; assay: BLI, steady state fit
T7 construct: also called LHD202B
T7 chain: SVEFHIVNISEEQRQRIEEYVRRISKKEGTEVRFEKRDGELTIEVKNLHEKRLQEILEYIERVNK
Experimental: as §2

LHD202 chainB [19] = target: T7, LHD202 chainB; assay: BLI, global kinetic fit, 1:1 model
Experimental: as §2

[20] = target: T8, LHD202 chainB, split luciferase reporter construct; assay: split luciferase association kinetics, 1 nM vs. 10 nM, in lysate
T8 construct: not shown: N-terminal Strep-tag and sfGFP; GS-linker and smBiT or lgBiT
T8 chain: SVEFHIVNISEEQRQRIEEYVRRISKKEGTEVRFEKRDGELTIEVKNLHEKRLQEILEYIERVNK
Experimental: as §1

[21] = target: T9, LHD274 chainB, split luciferase reporter construct; assay: as above
T9 construct: not shown: N-terminal Strep-tag and sfGFP; GS-linker and smBiT or lgBiT
T9 chain: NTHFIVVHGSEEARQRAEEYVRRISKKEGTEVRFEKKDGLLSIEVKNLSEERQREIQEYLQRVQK
Experimental: as §1

[22] = target: T10, LHD29 chainB, split luciferase reporter construct; assay: as above
T10 construct: not shown: N-terminal Strep-tag and sfGFP; GS-linker and smBiT or lgBiT
T10 chain: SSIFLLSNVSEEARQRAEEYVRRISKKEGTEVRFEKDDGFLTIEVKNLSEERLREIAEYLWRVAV
Experimental: as §1

[23] = target: T10, LHD29 chainB, split luciferase reporter …; assay: split luciferase; affinity of the interface as measured in isolation, used to simulate the ternary complex ABC
[24] = target: T10, LHD29 chainB, split luciferase reporter …; assay: split luciferase equilibrium binding in lysate

B1: 101A21, split luciferase reporter construct (designed binder)
chain: SEKEKVEELAQRIREQLPDTELAREAQELADEARKSDDSEALKVVYLALRIVQQLPDTELAREALELAKEAVKSTDSEKLKVVYLALRVVQQLPDTEEARKALEIAKEAVKADAQILLAIARAVLKMGVEMEVHPSGNEVKVVIKGLHIKQQRQLYRDVREAAKKAGVEVEIEVEGDTVTIVVRE
notes: also called LHD101-A21-B82 (A21 half); not shown: N-terminal Strep-tag and sfGFP; GS-linker and smBiT or lgBiT
Kd [1]: 11 nM

B2: 101A53, split luciferase reporter construct (designed binder)
chain: NDEKEKLKELLKRAEELAKSPDPEDLKEAVRLAEEVVRERPGSNLAKKALEIILRAAEELAKLPDPEALKEAVKAAEKVVREQPGSNLAKKALEIILRAAAALANLPDPESRKEADKAADKVRREQPGSELAVVAAIISAVARMGVKMELHPSGNEVKVVIKGLHIKQQRQLYRDVREAAKKAGVEVEIEVEGDTVTIVVRG
notes: also called LHD101-A53-B4 (A53 half); not shown: N-terminal Strep-tag and sfGFP; GS-linker and smBiT or lgBiT
kobs [2]: 0.026 s⁻¹
Kd [3]: 4 nM

B3: LHD101 chainA, split luciferase reporter construct (designed binder)
chain: GRQEKVLKSIEETVRKMGVTMETHRSGNEVKVVIKGLHIKQQRQLYRDVRETSKKQGVETEIEVEGDTVTIVVRE
notes: not shown: N-terminal Strep-tag and sfGFP; GS-linker and smBiT or lgBiT
Kd [4]: 37 nM
kobs [5]: 0.04 s⁻¹
Kd [6]: 5 nM
Kd [7]: 20 nM

B4: LHD101 chainA (designed binder)
chain: GRQEKVLKSIEETVRKMGVTMETHRSGNEVKVVIKGLHIKQQRQLYRDVRETSKKQGVETEIEVEGDTVTIVVRE
notes: also called LHD101A
Kd (LHD101 chainB [8]): 9.5 nM
kon (LHD101 chainB [9]): 1e+06 M⁻¹ s⁻¹
Kd (LHD101 chainB [10]): 1.9 nM
koff (LHD101 chainB [10]): 0.0043 s⁻¹
kon (LHD101 chainB [10]): 2.2e+06 M⁻¹ s⁻¹
koff (LHD101 chainB [11]): 0.0214 s⁻¹
binding result [12]: no binding (tested: above 100 µM)

B5: LHD206 chainA, split luciferase reporter construct (designed binder)
chain: TDELLERLRQLFEELHERGTEIVVEVHINGRKTEIEVQGIDKRLLKIILEVIREEIEREGSSEVEVNVHSGGQTWTFNEK
notes: as for B3
kobs [13]: 0.01 s⁻¹
Kd [14]: 11 nM

B6: LHD317 chainA (designed binder)
chain: GRQEKVLKSIEETVRKMGVRMLTHRGGNAVIVVIEGLHPSQAEQLLRDVHRTAKKQGVTVHLVFTGDIVVIMVVVGASEEEQEEMHRLVREIAEALHEAKRKGANEEQLEQLLRELLERAEREG
notes: also called LHD317A
Kd (317B [15]): 56 nM
binding result [16]: no binding (tested: 57.4 uM)
Kd (317B [17]): 34.7 nM
koff (317B [17]): 0.0051 s⁻¹
kon (317B [17]): 150000 M⁻¹ s⁻¹

B7: LHD202 chainA (designed binder)
chain: GRQEKVLKSIEETVRKMGVTMETHRSGNKVKVVIKGLHESQQEQLRKDVHETLRKQGVVAVTQKHGDTVTIYVTE
notes: also called LHD202A
Kd (LHD202 chainB [18]): 2400 nM
Kd (LHD202 chainB [19]): 4800 nM
koff (LHD202 chainB [19]): 0.29 s⁻¹
kon (LHD202 chainB [19]): 60000 M⁻¹ s⁻¹

B8: LHD202 chainA, split luciferase reporter construct (designed binder)
chain: GRQEKVLKSIEETVRKMGVTMETHRSGNKVKVVIKGLHESQQEQLRKDVHETLRKQGVVAVTQKHGDTVTIYVTE
notes: as for B3
kobs [20]: 0.018 s⁻¹

B9: LHD274 chainA, split luciferase reporter construct (designed binder)
chain: TTNFHLINGSEEARQRIEEYVRRISKKEGTEVHFEKSDGTLEIRVKNLHEKREREIKEYIERVLL
notes: as for B3
kobs [21]: 0.0014 s⁻¹

B10: LHD29 chainA, split luciferase reporter construct (designed binder)
chain: TWQWVLINISEEARQRIEEYVRRISKKEGTEVHFEKDDGVLHIRVKNLHEKRAREIHEYAKRVIL
notes: as for B3
kobs [22]: 0.0003 s⁻¹
Kd [23]: 50 nM
Kd [24]: 60 nM
